Measured values taken from paper doi:10.1101/2020.06.28.176677 (bioRxiv, 2020).

B1: recombinant human GCDH, unmodified (hGCDH-6xHIS) (enzyme, UniProt Q92947 45-438, looked up)
chain: RPEFDWQDPLVLEEQLTTDEILIRDTFRTYCQERLMPRILLANRNEVFHREIISEMGELGVLGPTIKGYGCAGVSSVAYGLLARELERVDSGYRSAMSVQSSLVMHPIYAYGSEEQRQKYLPQLAKGELLGCFGLTEPNSGSDPSSMETRAHYNSSNKSYTLNGTKTWITNSPMADLFVVWARCEDGCIRGFLLEKGMRGLSAPRIQGKFSLRASATGMIIMDGVEVPEENVLPGASSLGGPFGCLNNARYGIAWGVLGASEFCLHTARQYALDRMQFGVPLARNQLIQKKLADMLTEITLGLHACLQLGRLKDQDKAAPEMVSLLKRNNCGKALDIARQARDMLGGNGISDEYHVIRHAMNLEAVNTYEGTHDIHALILGRAITGIQAFTASK
B2: chemically succinylated recombinant human GCDH (succinyl-GCDH) (enzyme, UniProt Q92947 45-438, looked up)
chain: B1 chain
modifications: succinyl-lysine, 11 sites found by LC-MS/MS (sites shown in Supporting Figure 2G, not given)
B3: glutaryl-CoA dehydrogenase (GCDH), mouse liver mitochondria (enzyme, mouse (endogenous in liver mitochondria), UniProt Q60759 45-438, looked up)
chain: RPVFDWKDPLILEEQLTADEKLIRDTFRNYCQERLMSRILLANRNEVFHRDIVYEMGELGVLGPTIKGYGCAGVSSVAYGLLTRELERVDSGYRSMMSVQSSLVMHPIYTYGSEEQRQKYLPGLAKGELLGCFGLTEPNHGSDPGGMETRARHNPSNQSYTLSGTKTWITNSPVADLFIVWARCEDNCIRGFILEKGMRGLSAPRIEGKFSLRASATGMIIMDSVEVPEENVLPNVSSLAGPFGCLNTARYGITWGVLGAAEFCLHTARQYALDRIQFGVPLARNQLVQKKLADMLTEITLGLHACLQLGRLKDQDKATPEMVSMLKRNNCGKALDIARQARDILGGNGISDEYHVIRHAMNLEAVNTYEGTHDIHALILGRAITGIQAFTVGK

Experiments:
SEC = target: the molecule itself; experiment: SEC
native gel or EMSA = target: the molecule itself; experiment: native gel or EMSA

Protein | stoichiometry N (SEC) | stoichiometry N (native gel or EMSA)
B1 | 4 | –
B2 | 4 | –
B3 | – | 4
